In patent US20100120124A1 (CONSEJO SUPERIOR DE INVESTIGACIONES CIENTIFICAS, published 2010):

How the values were obtained:
[1] = target: T1, α-amylase (pig pancreatic enzyme α-amylase, Sigma) (pig, UniProt P00690 16-511); test: ELISA, supernatant of EPEC culture on coated antigen, anti-E-tag-POD
T1 sequence: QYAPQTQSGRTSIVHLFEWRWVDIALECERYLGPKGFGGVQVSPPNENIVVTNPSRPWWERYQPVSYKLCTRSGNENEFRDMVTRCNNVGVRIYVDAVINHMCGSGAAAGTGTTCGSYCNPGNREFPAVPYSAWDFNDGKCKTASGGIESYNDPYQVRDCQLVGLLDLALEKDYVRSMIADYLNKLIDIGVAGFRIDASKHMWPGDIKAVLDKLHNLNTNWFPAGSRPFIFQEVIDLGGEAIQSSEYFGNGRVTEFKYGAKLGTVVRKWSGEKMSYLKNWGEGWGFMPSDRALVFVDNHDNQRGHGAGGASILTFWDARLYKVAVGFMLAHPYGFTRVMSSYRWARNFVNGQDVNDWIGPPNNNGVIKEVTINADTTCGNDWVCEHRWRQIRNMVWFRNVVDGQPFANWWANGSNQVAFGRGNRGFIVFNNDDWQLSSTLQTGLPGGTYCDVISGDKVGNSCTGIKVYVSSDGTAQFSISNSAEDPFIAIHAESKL

[2] = target: T2, bovine seroalbumin (BSA, Roche) (bovine, UniProt P02769 25-607); test: as above
T2 construct: also called bovine albumin
T2 sequence (P02769 25-607 limits assumed): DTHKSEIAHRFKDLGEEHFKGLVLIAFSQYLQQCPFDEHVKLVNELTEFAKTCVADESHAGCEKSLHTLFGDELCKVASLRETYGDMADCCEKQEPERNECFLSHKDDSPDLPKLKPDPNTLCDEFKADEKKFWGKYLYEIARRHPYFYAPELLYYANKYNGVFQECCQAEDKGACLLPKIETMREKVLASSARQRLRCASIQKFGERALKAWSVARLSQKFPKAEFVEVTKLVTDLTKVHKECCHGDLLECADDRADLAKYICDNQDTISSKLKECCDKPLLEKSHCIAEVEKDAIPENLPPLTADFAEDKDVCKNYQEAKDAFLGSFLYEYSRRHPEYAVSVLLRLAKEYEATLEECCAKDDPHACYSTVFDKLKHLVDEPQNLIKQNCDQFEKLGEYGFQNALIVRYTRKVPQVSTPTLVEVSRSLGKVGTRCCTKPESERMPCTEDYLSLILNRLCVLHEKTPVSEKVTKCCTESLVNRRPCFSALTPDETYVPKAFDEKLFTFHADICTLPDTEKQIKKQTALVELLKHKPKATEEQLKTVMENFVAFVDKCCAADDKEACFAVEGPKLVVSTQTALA

B1: fusion antibody EspF-Vamy (EspF20 signal fused to camel VHH anti-amylase with C-terminal 6xhis and E-tag) (VHH)
VHH: QVQLVESWGGSVQAGGSLRLSCTAPGFTSNSCRMDWYRQAAGKQREWVSSISTDGRTSYADSVKGRFTISKDKAKDTVYLQMNSLKPEDTAIYYCAVRTNGYRPQSHEFRYWGPGTQVTVSS
notes: also called EspF20-Vamy; product of plasmid pEspFVamy
Question: What does the source list for B1?
Answer: binding result [1]: binds; binding result [2]: no binding

B2: fusion antibody EspF-Vgfp (EspF20 signal fused to camel VHH anti-GFP with C-terminal 6xhis and E-tag) (VHH)
VHH: QVQLVESGGALVQPGGSLRLSCAASGFPVNRYSMRWYRQAPGKEREWVAGMSSAGDRSSYEDSVKGRFTISRDDARNTVYLQMNSLKPEDTAVYYCNVNVGFEYWGQGTQVTVSS
notes: also called product of plasmid pEspFVgfp
Question: Does B2 bind [1]?
Answer: Result: no binding

Question: Does B2 bind [2]?
Answer: Result: no binding
